Three proteins from paper PMC6641176 (ACS Omega, 2017) can be followed below.

Usually stoichiometry N stands for the number of molecules, sites or subunits per partner or assembly.

Data set [1] deals with the molecule itself. In words: SDS-PAGE and western blot. For orientation: Immunoblotting shows a protein as a band on a membrane.
Data set [2] concerns the molecule itself. Description: SEC.

B1: AqpZ-C20S (Escherichia coli aquaporin Z, C20S mutant) (natural protein)
chain: MFRKLAAECFGTFWLVFGGSGSAVLAAGFPELGIGFAGVALAFGLTVLTMAFAVGHISGGHFNPAVTIGLWAGGRFPAKEVVGYVIAQVVGGIVAAALLYLIASGKTGFDAAASGFASNGYGEHSPGGYSMLSALVVELVLSAGFLLVIHGATDKFAPAGFAPIAIGLALTLIHLISIPVTNTSVNPARSTAVAIFQGGWALEQLWFFWVVPIVGGIIGGLIYRTLLEKRD
Consider B1, for which the “stoichiometry N” value in data set [1] amounted to 4.

B2: AqpZ-G144F (in the AqpZ-C20S background) (natural protein, Escherichia coli)
chain: MFRKLAAECFGTFWLVFGGSGSAVLAAGFPELGIGFAGVALAFGLTVLTMAFAVGHISGGHFNPAVTIGLWAGGRFPAKEVVGYVIAQVVGGIVAAALLYLIASGKTGFDAAASGFASNGYGEHSPGGYSMLSALVVELVLSAFFLLVIHGATDKFAPAGFAPIAIGLALTLIHLISIPVTNTSVNPARSTAVAIFQGGWALEQLWFFWVVPIVGGIIGGLIYRTLLEKRD
B2: the “stoichiometry N” value in data set [2] turned out to be 4.

B3: AqpZ-I176G (in the AqpZ-C20S background) (natural protein, Escherichia coli)
chain: MFRKLAAECFGTFWLVFGGSGSAVLAAGFPELGIGFAGVALAFGLTVLTMAFAVGHISGGHFNPAVTIGLWAGGRFPAKEVVGYVIAQVVGGIVAAALLYLIASGKTGFDAAASGFASNGYGEHSPGGYSMLSALVVELVLSAGFLLVIHGATDKFAPAGFAPIAIGLALTLIHLGSIPVTNTSVNPARSTAVAIFQGGWALEQLWFFWVVPIVGGIIGGLIYRTLLEKRD
For B3, the “stoichiometry N” value in data set [2] was 4.
